The values below are quoted from earlier work in paper PMC10650157.

The target in data set [1] is apo-transferrin (Homo sapiens) (UniProt P02787).
For data set [2], the target named is apo-lactoferrin (Homo sapiens) (UniProt P02788).
UniProt P02788, sequence (P02788 20-710): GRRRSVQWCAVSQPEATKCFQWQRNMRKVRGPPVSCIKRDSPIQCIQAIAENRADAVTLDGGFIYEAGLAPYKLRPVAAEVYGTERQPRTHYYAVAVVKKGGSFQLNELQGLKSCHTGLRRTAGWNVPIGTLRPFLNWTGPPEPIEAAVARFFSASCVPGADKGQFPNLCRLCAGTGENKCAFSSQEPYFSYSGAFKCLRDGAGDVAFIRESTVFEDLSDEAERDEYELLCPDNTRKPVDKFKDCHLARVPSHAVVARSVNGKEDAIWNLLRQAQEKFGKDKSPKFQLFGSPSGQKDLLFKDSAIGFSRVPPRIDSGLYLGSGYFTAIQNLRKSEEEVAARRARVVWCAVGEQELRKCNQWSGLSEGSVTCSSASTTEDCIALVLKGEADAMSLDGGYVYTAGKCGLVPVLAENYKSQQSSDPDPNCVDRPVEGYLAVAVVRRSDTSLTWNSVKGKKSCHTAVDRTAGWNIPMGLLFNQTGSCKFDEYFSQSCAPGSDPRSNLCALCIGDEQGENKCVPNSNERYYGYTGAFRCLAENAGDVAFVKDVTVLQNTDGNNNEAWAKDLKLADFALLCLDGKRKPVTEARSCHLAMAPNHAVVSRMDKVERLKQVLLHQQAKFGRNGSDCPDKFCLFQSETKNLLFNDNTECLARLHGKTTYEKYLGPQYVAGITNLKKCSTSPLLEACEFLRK

UniProt P02787, sequence (P02787 20-698): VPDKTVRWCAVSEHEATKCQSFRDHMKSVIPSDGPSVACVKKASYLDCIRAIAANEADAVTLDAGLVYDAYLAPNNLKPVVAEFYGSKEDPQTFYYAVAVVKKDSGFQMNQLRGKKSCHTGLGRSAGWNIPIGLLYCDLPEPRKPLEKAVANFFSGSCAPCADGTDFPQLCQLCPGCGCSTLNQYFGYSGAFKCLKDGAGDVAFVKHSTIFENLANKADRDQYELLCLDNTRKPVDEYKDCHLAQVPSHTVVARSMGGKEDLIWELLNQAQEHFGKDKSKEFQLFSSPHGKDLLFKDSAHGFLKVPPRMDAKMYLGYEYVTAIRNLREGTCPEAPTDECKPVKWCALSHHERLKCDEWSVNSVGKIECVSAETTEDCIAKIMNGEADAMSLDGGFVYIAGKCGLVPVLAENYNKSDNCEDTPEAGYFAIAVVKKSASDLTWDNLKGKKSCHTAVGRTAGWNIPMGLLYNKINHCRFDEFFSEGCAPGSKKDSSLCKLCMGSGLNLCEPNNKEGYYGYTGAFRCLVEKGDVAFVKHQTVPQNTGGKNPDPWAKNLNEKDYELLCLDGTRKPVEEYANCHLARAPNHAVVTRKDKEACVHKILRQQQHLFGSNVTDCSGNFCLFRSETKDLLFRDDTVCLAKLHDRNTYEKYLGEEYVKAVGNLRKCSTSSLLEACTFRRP

Take Ceruloplasmin (from UniProt P00450): the values for the Kd in data set [1] and in data set [2] were 51.3 µM and 7.4 µM, respectively.
